Source: patent publication US20150258192A1, “COMPOSITIONS AND METHODS FOR PREVENTING OR TREATING CHRONIC LUNG ALLOGRAFT DYSFUNCTION (CLAD) AND IDIOPATHIC PULMONARY FIBROSIS (IPF)” (priority 2014, published 2015)
No end group written: not given here.

Legend:
Test in all cases: Kinase Profiling Assay
Type in all cases: biochemical
Conditions in all cases: peptide 100 μM
PKCε(h) = biological target: T1, PKCε(h) (Homo sapiens, UniProt Q02156)
T1 sequence (Q02156 1-737): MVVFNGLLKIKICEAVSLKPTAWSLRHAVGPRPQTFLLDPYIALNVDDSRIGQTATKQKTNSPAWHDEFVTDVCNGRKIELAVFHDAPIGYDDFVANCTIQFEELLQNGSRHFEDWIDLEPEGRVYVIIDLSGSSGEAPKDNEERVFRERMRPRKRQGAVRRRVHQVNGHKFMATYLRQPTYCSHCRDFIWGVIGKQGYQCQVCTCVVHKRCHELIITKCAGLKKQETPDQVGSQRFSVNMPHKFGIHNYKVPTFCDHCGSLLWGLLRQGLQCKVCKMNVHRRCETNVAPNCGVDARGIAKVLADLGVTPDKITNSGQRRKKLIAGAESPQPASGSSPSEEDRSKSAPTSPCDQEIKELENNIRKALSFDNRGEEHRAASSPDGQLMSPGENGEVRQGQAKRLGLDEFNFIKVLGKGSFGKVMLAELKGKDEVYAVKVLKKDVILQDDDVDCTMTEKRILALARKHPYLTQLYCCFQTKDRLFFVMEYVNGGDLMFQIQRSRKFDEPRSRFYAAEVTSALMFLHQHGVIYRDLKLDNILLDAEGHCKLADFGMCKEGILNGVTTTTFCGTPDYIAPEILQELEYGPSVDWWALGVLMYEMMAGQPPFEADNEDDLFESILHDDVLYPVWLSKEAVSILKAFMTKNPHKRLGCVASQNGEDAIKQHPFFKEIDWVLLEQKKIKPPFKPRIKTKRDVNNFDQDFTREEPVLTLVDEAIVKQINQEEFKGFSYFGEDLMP
Summary of the method: (§1)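 Measured twice per kinase, activity in presence of MK2 inhibitory peptide was calculated against a 100% activity control after radiometric phosphorylation of a cationic substrate, anionic filter capture and scintillation counting; one of 266 human kinases profiled for specificity.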

Pyk2(h) = Pyk2(h) (Homo sapiens, UniProt Q14289)
Sequence of Pyk2(h) (Q14289 whole entry): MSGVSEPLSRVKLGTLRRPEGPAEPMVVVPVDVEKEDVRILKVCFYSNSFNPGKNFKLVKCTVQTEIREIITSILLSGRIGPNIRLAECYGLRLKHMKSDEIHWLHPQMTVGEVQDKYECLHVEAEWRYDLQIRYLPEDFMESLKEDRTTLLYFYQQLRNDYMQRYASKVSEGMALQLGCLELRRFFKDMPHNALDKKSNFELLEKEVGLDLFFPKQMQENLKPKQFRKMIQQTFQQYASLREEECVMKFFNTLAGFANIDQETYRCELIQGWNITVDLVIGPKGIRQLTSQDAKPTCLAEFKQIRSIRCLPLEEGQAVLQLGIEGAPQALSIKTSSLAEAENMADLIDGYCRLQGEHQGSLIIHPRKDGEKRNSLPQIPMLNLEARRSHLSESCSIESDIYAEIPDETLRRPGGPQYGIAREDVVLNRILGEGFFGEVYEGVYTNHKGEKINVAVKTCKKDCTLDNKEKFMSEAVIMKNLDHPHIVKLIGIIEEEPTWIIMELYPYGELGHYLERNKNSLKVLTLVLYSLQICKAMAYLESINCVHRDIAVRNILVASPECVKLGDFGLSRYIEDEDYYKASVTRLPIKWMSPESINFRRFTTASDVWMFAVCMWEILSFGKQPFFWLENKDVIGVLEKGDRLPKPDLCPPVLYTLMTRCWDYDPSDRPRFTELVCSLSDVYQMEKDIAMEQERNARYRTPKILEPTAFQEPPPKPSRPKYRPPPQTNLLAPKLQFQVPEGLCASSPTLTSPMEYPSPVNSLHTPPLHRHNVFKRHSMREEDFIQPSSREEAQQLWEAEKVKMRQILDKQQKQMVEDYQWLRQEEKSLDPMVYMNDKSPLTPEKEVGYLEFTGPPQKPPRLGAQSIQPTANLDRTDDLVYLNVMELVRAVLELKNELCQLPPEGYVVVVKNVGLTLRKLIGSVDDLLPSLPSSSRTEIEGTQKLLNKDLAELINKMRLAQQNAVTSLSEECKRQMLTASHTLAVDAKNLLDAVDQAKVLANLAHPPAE
Summary of the method: as §1

ULK3(h) = biological target: T2, ULK3(h) (Homo sapiens, UniProt Q6PHR2)
T2 sequence (Q6PHR2 1-472): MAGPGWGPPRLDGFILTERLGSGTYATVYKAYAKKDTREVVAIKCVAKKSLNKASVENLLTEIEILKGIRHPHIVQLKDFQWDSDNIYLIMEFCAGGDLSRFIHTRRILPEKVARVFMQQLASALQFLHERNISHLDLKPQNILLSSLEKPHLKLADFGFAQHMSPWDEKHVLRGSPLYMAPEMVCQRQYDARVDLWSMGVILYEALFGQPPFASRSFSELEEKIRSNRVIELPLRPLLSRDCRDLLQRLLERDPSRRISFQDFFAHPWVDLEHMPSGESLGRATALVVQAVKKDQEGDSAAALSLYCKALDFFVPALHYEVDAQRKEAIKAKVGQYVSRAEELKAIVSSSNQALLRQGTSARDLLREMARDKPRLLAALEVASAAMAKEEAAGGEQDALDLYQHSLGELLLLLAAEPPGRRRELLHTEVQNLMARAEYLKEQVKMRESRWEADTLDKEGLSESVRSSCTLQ
Summary of the method: as §1

ZAP-70(h) = biological target: T3, ZAP-70(h) (Homo sapiens, UniProt P43403)
T3 sequence (P43403 1-619): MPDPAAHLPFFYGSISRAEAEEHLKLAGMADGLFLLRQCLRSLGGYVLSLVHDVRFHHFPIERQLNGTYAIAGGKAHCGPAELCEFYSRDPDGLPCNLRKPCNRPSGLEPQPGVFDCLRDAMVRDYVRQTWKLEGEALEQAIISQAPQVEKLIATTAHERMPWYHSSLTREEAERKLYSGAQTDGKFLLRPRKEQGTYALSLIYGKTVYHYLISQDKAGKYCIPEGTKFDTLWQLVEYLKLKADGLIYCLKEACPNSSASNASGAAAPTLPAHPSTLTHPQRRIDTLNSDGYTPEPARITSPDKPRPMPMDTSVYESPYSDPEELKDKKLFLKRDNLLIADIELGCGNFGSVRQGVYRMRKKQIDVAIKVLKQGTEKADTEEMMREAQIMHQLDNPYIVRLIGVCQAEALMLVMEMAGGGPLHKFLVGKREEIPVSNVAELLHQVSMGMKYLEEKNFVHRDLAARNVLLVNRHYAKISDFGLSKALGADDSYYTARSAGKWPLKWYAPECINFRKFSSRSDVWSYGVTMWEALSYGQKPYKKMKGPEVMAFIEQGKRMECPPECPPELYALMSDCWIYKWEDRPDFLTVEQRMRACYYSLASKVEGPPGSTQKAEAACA
Summary of the method: as §1

PRAK(h) = biological target: T4, PRAK(h) (Homo sapiens, UniProt Q8IW41)
T4 sequence (Q8IW41 1-473): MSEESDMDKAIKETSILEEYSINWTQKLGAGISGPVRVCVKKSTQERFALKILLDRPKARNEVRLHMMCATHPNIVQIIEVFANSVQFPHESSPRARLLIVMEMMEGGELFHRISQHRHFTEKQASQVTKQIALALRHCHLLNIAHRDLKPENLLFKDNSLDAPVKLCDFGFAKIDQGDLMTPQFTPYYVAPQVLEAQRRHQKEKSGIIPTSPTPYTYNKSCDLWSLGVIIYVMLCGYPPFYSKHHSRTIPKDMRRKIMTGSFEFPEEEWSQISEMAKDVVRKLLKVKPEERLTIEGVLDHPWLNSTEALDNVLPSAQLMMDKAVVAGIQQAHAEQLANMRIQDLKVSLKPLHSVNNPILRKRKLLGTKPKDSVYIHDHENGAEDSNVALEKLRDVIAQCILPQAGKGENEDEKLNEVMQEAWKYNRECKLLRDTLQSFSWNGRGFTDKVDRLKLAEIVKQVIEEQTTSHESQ
Summary of the method: as §1

TrkA(h) = TrkA(h) (Homo sapiens, UniProt P04629)
Sequence of TrkA(h) (P04629 33-796): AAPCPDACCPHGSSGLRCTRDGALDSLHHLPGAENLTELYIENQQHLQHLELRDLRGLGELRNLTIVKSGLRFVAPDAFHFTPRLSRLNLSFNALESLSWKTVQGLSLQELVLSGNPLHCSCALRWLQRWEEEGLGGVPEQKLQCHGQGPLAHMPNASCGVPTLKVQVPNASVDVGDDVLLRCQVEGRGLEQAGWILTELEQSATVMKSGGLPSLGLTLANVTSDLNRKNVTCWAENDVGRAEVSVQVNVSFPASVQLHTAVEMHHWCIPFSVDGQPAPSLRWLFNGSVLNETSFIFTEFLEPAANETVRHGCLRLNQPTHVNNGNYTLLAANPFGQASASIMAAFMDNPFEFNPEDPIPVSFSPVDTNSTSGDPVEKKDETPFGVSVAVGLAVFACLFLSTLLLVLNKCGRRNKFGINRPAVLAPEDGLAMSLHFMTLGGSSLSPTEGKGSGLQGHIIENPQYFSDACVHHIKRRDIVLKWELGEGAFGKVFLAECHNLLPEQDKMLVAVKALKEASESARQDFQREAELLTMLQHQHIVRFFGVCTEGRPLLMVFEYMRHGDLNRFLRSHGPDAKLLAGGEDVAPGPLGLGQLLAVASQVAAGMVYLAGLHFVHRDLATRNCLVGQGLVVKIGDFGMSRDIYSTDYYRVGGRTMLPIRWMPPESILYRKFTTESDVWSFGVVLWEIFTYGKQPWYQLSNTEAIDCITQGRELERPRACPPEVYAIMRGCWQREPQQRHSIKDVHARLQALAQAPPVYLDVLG
Summary of the method: as §1

| Sequence | % activity (PKCε(h)) [%] | % activity (Pyk2(h)) [%] | % activity (ULK3(h)) [%] | % activity (ZAP-70(h)) [%] | % activity (PRAK(h)) [%] | % activity (TrkA(h)) [%] |
| --- | --- | --- | --- | --- | --- | --- |
| YARAAARQARAKALNRQLGVA (Mammal) [MMI-0200] | 98 | 127 | 164 | 58 | – | – |
| YARAAARQARAKALARQLGVAA [MMI-0100] | – | – | 142 | 79 | 159 | 74 |
| HRRIKAWLKKIKALARQLGVAA (Mammal) [MMI-0500] | 23 | 46 | 177 | 1 | 95 | 24 |
| KAFAKLAARLYRKALARQLGVAA [MMI-0400] | 59 | 34 | 147 | 33 | 118 | 17 |
| FAKLAARLYRKALARQLGVAA [MMI-0300] | 79 | 47 | 167 | 75 | 128 | 25 |
